{"source": "paper PMC12093266", "about": "“Synergistic action of two radical SAM enzymes in the biosynthesis of thuricin CD, a two-component sactibiotic†” (Chemical Science, 2025)", "binders": {"B1": {"name": "TrnD (enzyme)", "chain": "MKKYFRLYPYCHLEIGETNSCLYDISSGKMIRVNRENAELLRQCQENVPIESINMDLGILDELIKMNLGTYYANPQFIEPFFETNDTKNRIFGKNNILRQMFILTSTDCNMNCKHCNTDSTVFRKTGCKIWPKSINLNALTQSHWRKILEAFYNLHGEELTFIGGEPFLEFDFIKNIVEIAQEVGISKFSIFTNGSIINDTILNFLMENKIKVYIQIFEVDENKFKAFTNSDIPSIQIIDNIKKLNNHHLDLQLRILITRDNDNNLKKIVNTLQKETNVKDIKIEFLYPKPDNSYYSKKYIPLMYDKKREFSHVNVQKMQFLHQYNPSFFGQITIRRDGKVVPHPMLLTRVIGDLQQDDLFTIINTEEYQEYSTLNKEKISKCSTCAYKYNCMDDRVIENFATGDLYGMEYCNF", "modifications": "fluorescently labeled (in the MST of Fig. 5D only)"}, "B2": {"name": "equimolar mixture of TrnD and TrnB (complex)", "chain 1": "B1 chain", "chain 2": "MEVLNKQNVNIIPESEEVGGWVACVGACGTVCLASGGVGTEFAAASYFL"}}, "biological_target": "T1, TrnC (Bacillus thuringiensis, fluorescently labeled with RED-NHS (in the MST experiments where TrnC is the labelled partner))", "T1 construct": "TrnC, radical SAM (rSAM/SPASM) sactisynthase encoded in the thuricin CD biosynthetic gene cluster of Bacillus thuringiensis; Likely holds three [4Fe-4S] clusters after reconstitution; also called 6× His-tagged TrnC; wild type TrnC; source: E. coli, purified to near homogeneity and reconstituted under anaerobic conditions; also E. coli lysate, coexpressed with non-tagged TrnD from a …", "experiment": "MST; TrnC fluorescently labeled with RED-NHS; series of diluted TrnD (or TrnD(ΔRRE), or an equimolar mixture of TrnD with TrnA or TrnB) mixed with it in capillaries; Monolith instrument; aerobic conditions", "conditions": "both partners purified"}
{"binder": "B1", "values": [{"measurement": "Kd", "result": "2390 ± 460", "unit": "nM"}]}
{"binder": "B2", "values": [{"measurement": "Kd", "result": "620 ± 160", "unit": "nM"}]}
